# Results as given in the DeepSol protein solubility set.
# Assay: soluble on expression in E. coli; label from the status in PepcDB or PDB records
row,Sequence,soluble on expression in E. coli
1,SNAMNHTADNCIFCKIIDGQILCSKVYEDEHVLAFLDISQVTKGHTLVIPKVHKQDIFALTPEIASHIFSVVPKIANAIKAEFNPVGFNLLNNNGEKAGQTVFHFHLHLIPRYGENDGFGAVWKSHQNEYTMENLQNIASTIANSVK,soluble
2,SNAMNNIRLLNQNDLDSYIELMKFGHHNYEWDRYYLENVSIDRLKTILSNHTDYWNIFGAFEDDELVATCTLKQMNYVGKCHKAILENNFVKNNDEIVNRELINHIIQYAKEQNIETLMIAIASNNISAKVFFSSIGFENLAFEKNASKIGNEYFDENWLIYSTTESSD,soluble
3,SNAMNYFELFGLPIQFELDGSLLSSQFRALQKRFHPDNFATASERDRLMAVQQAAQINDAYQTLKDPLRRAEYLLSLQGIEMNAEQQTLQDPMFLMEQMELREELESVTACADPEAALVAFDTKVTAMQRHYLAQLQGQLAQSEWLAAADQIRKLKFIAKLKNEVERVEDQLLG,soluble
4,SNAMTTPIRVVVWNEFRHEKKDEQVRAIYPEGMHTVIASYLAEAGFDAATAVLDEPEHGLTDEVLDRCDVLVWWGHIAHDEVKDEVVERVHRRVLEGMGLIVLHSGHFSKIFKKLMGTTCNLKWREADEKERLWVVAPGHPIVEGIGPYIELEQEEMYGEFFDIPEPDETIFISWFEGGEVFRSGCTFTRGKGKIFYFRPGHETYPTYHHPDVLKVIANAVRWAAPVNRGEIVFGNVKPLEPIKAKQGGVTQ,soluble
5,SNANCKKIGEDSKIIIRQITDNDLELLMAWRSNPLIYKFFYIQKEPLKWEEHYSWWMSRENRVDWIILLRENNTIRKVGSVNVSQLNTDNPEIGILIGEFFLWGKHIGRHSVSLVLKWLKNIGYKKAHARILENNIRSIKLFESLGFKKTKKGRENEWIYEVNL,soluble
6,SNQEKLQRTMIHFNNPEVQAFLAVNTFTITGHGETKQLTEMLRSVLNQLAAVSLTSLRRLAEALPKQSVDGKAPLATGEDDDDDEVPGIMENFDEASKNEAN,soluble
7,SNRIYTLFLQRNPDFKGGVSIAGHSLGSLILFDILTNQKDSLGDIDSEKDSLNIVMDQGDTPTLEEDLKKLQLSEFFDIFEKEKVDKEALALCTDRDLQEIGIPLGPRKKILNYFSTRKNSMGIKRPAPQPASGANIPKESEFCSSSNTRNGDYLDVGIGQVSVKYPRLIYKPEIFFAFGSPIGMFLTVRGLKRIDPNYRFPTCKGFFNIYHPFDPVAYRIEPMVVPGVEFEPMLIPHHKGRKRMHLELREGLTRMSMDLKNNLLGSLRMAWKSFTRAPYPALQASETPEETEAEPESTSEKPSDVNTEETSVAVKEEVLPINVGMLNGGQRIDYVLQEKPIESFNEYLFALQSHLCYWESEDTVLLVLKEIYQTQGIFLDQPLQ,soluble
8,SNTPRLSLRTIEPTDYPELAELMDLVFPDVGGSWPRLTIMDLIHQFPDGQICIEDNGKIVGAALTIKVDYNRFSLPHLYTDIITENNVIQNQVTGDAMYGLDVFVHPDYRGLRLGRRLYDARKELCRSKNFKAILAGGRIPNYHQYADELSVAEYIDKVKRRELHDPILSFQLANDFDVKRIMRGYLP,not soluble
9,SPAPAATYERVVYKNPSEYHYMKVCLEFQDCGVGLNAAQFKQLLISAVKDLFGEVDAALPLDILTYEEKTLSAILRICSSGLVKLWSSLTLLGSYKGKKCAFRVIQVSPFLLALSGNSRELVLD,soluble
10,SPNSMSALKAVFQYIDENQDRYVKKLAEWVAIQSVSAWPEKRGEIRRMMEVAAADVQRLGGSVELVDIGKQKLPDGSEIPLPPILLGKLGSDPQKKTVCIYGHLDVQPAALEDGWDSEPFTLVEREGKLYGRGSTDDKGPVAGWMNALEAYQKTGQEIPVNLRFCLEGMEESGSEGLDELIFAQKDKFFKDVDYVCISDNYWLGKNKPCITYGLRGICYFFIEVECSDKDLHSGVYGGSVHEAMTDLISLMGCLVDKKGKILIPGINDAVAPVTDEEHALYDHIDFDMEEFAKDVGAETLLHSCKKDILMHRWRYPSLSLHGIEGAFSGSGAKTVIPRKVVGKFSIRLVPDMIPEVVSEQVSSYLSKKFAELQSPNKFKVYMGHGGKPWVSDFNHPHYQAGRRALKTVFGVEPDLTREGGSIPVTLTFQEATGKNVMLLPVGSADDGAHSQNEKLNRLNYIEGTKMLAAYLYEVSQLKN,soluble
11,SPSPWGWFAVTACGAQRNNFEEPVALQEMDTSNGVLLPFYDPDSSIVYLCGKGDSSIRYFEITDEPPFVHYLNTFSSKEPQRGMGFMPKRGLDVSKCEIARFYKLHERKCEPIIMTVPRKSDLFQDDLYPDTPGPEPALEADEWLSGQDAEPVLISLRDGYVPPKHRELRVTKRNILDVRPPSGPRRSQSASDAPLSQHTLETLLEEIKALRERVQAQEQRITALENMLCELVDGTD,soluble
12,SPTVEACGYSDRIIQITRGDSTITSQDVANAIVAYGVWPHYLSSKDASAIDKPSQPDTSSNRFYTLRSVTWSSSSKGWWWKLPDALKDMGIFGENMFYHYLGRSGYTIHVQCNASKFHQGTLIVALIPEHQIASALHGNVNVGYNYTHPGETGREVKAETRLNPDLQPTEEYWLNFDGTLLGNITIFPHQFINLRSNNSATIIAPYVNAVPMDSMRSHNNWSLVIIPICPLETSSAINTIPITISISPMCAEFSGARAKRQ,soluble
13,SPVSKCPKKSESLWKGWDRKAQRNGLRSQVYAVNGDYYVGEWEDNVKHGKGTQVWKKKGAIYEGDWKFGKRDGYGTLSLPDQQTGKCRRVYSGWWKGDKKSGYGIQFFGPKEYYEGDWCGSQRSGWGRMYYSNGDIYEGQWENDKPNGEGMLRLKNGNRYEGCWERGMKNGAGRFFHLDHGQLFEGFWVDNMAKCGTMIDFGRDEAPEPTQFPIPEVKILDPDGVLAEALAMFRKTEEGD,soluble
14,SQFKWSDFRILDRVSIGHGGRADELVFEAIVQVPDSPLFNQGVVLRKLNTTRAQRRGRRAIEVFKKLVRRRLLYHSYSMQVHGYITNNLSDDQYSFTLVHGCHGSFSIRHWLQQSDWIPTLEATLALDEESFRRVGDDTTGGPAVSRQLRLIRTLMRDILIGVNYLHSHGLAHTELRLENVHISPVDRHIKVGILGNAADFNGDVPSTSNAYSTMDRRQMMIAFDMRCVGFMMAKMVLQELMDPLIFAKLKSFLAKGNDPSSLREFFVTTLNTNSESGNTGVQILDRNWGAGWHLLSLLIATRPSERISCLDALKHPFLCGPRWRVAPSMDIIRWGLGSTAVKISEEYIYRMPQRQRLAHFIGLMEMLNPYPKPNCWLELLPGRWRLLYSTGKHIGLTLRQPSTRALIGNVHLTITRASESINNTSLSFTSDIRFTAITSKDWPHNKIGAAGKLQTLSQFRLIAGKRLYLKEEKKNIGKFSMGEPDAEEGLAEKLETEKWKKVVPFKEFPSSLPVAKLVSGEIEVTMNMNDHIDSPGSVIGEVRKQIPPEMFDLSKLVCGTYIDSRLLVLRCVNGSALLFTRSSLDHKSM,soluble
15,SQLTHINAAGEAHMVDVSAKAETVREARAEAFVTMRSETLAMIIDGRHHKGDVFATARIAGIQAAKRTWDLIPLCHPLMLSKVEVNLQAEPEHNRVRIETLCRLTGKTGVEMEALTAASVAALTIYDMCKAVQKDMVIGPVRLLAKSGGKSGDFKVEADD,not soluble
16,SQSPNPNNPAEYCSTIPPLQQAQASGALSSPPPTVMVPVGV,soluble
17,SQWIMHKTSTPEFCASCHSMSYPQQEWEGSSHFANAKGVRAQCSDCHIPKEGWHYVKAKFIALKDLWYEAQGKIENKEKYEAHRAEMAQRVWKDMKANDSETCRSCHSFDAMELSKQTKLAKQTHTEAQTNGQTCIDCHKGIVHFLPEVHGDQNTQKSSAVQGGTLSDGSAIFATEMVKATNDKGNEVRLMPYAELMQWKVDGDQIQGTLHGWQQVGAEAVVYQELGKRITLALMDEDARNHVQVLKIVHDAVTDSDWKEISVAVNVAKEKMTSDLTTLNQYGNQLNQTQCSGCHAAIGADHYTA,not soluble
18,SRGHDATSWINRCLDCFSEGLSFRRQSKRPKMKVHYGDKAKDYDYNARKKQQSEEIDRILDKLKKSGYNSLTTEEKKSLFDASKK,not soluble
19,SSAEAGGGIRKRHRTKFTAEQKERMLALAERIGWRIQRQDDEVIQRFCQETGVPRQVLKVWLHNNKH,soluble
20,SSCTIEKILTDAKTLLERLREHDAAAESLVDQSAALHRRVAAMREAGTALPDQYQEDASDMKDMSKYKPHILLSQENTQIRDLQQENRELWISLEEHQDALELIMSKYRKQMLQLMVAKKAVDAEPVLKAHQSHSAEIESQIDRICEMGEVMRKAVQVDDDQFCKIQEKLAQLELENKELRELLSISSESLQARKENSMDTASQAIK,soluble
21,SSEELLKQALQQAQQLLQQAQELAKKGGGEELLKQALQQAQQLLQQAQELAKKGGGGEELLKQALQQAQQLLQQAQELAKKGGGEELLKQALQQAQQLLQQAQELAKK,soluble
22,SSPGKPPRLVGGPMDASVEEEGVRRALDFAVGEYNKASNDMYHSRACQVVRARKQIVAGVNYFLDVELCRTTCTKTQPNLDNCPFHDQPHLKRKAFCSFQIYAVPWQGTMTLSKSTCQDA,soluble
23,SSRAKRIMKEIQAVKDDPAAHITLEFVSESDIHHLKGTFLGPPGTPYEGGKFVVDIEVPMEYPFKPPKMQFDTKVYHPNISSVTGAICLDILRNAWSPVITLKSALISLQALLQSPEPNDPQDAEVAQHYLRDRESFNKTAALWTRLYASETSNGQKGNVEESDLYGIDHDLIDEFESQGFEKDKIVEVLRRLGVKSLDPNDNNTANRIIEELLK,soluble
24,SSSSSDGGLFRSRPAHSLPPGEDGRVEPYVDFAEFYRLWSVDHGEQSVMTAP,soluble
25,SSTFEDADTEETVTCLQMTIYHPGQQSGIFKSIRFCSKEKFPSIEVVKFGRNSNMCQYTFQDKQVSRIQFVLQPFKQFNSSVLSFEIKNMSKKTSLMVDNQELGYLNKMDLPYKCMLRFGEYQFLLQKEDGESVESFETQFIMSSRPLLQENNWPTQNPIPEDGMYSSYFTHRSSPSEMDENEL,soluble
26,STERRRDELSEEINNLREKVMKQSEENNNLQSQVQKLTEENTTLREQVEPTPEDEDDDIELRGAAAAAAPPPPIEEECPEDLPEKFDGNPDMLAPFMAQCQIFMEKSTRDFSVDRVRVCFVTSMMTGRAARWASAKLERSHYLMHNYPAFMMEMKHVFEDPQRREVAKRKIRRLRQGMGSVIDYSNAFQMIAQDLDWNEPALIDQYHEGLSDHIQEELSHLEVAKSLSALIGQCIHIERRLARAAAARKPRSPPRALVLPHIASHHQVDPTEPVGGARMRLTQEEKERRRKLNLCLYCGTGGHYADNCPAKASKSSPAGNSPAPL,soluble
27,STGKAKPKKHTAKELQAKADAALTNRGGGKAGLADRTGKEKGGHAKYECPHCKITVPDLKTMQIHHESKHPKLTYEEPRNLHEALAAPAESSKPKPGIRGSLKK,soluble
28,STNAEAVTVTNKQIIFPDYVTGFPKESDLKITTTTIDLRLPEGSTSVLVKNLYLSCDPYMRICMGKPDPLSSSLVPPYKTGVPIIGLGVSKVIDSGHPDYKKGDLLWGLVGWEEYSVITLTTYSHFKIEHTDVPLSYYTGLLGMPGMTAYAGFYEVCSPKKGETVFVSAASGAVGQLVGQFAKLMGCYVVGSAGSKEKVYLLKTKFGFDDAFNYKEEKDFSAALKRYFPEGIDIYFENVGGKMLDAVLINMKLHGRVAVCGMISQYNLVDPEGVHNLPTILYKRIQLQGFGVCDFYDKYPKFLDFVLPYIREGKITYVEDIAEGFESGPSALLGLFEGKNVGKQLFVVARE,soluble
